Here are results for 2 substances from article doi:10.1101/2020.02.11.944462.

The target in test [1] is 2019-nCoV S prefusion-stabilized ectodomain (residues 1-1208, two proline substitutions, GSAS at the (2019-nCoV | bacteriophage T4)). The experiment in a line: cryo-EM structure.
Test [2] has the same target. The experiment in a line: SPR; […], Biacore X100; 10 mM HEPES pH 8.0, 150 mM NaCl, 0.05% Tween 20; […]; 1:1 binding model.

Sequence of human angiotensin-converting enzyme 2 (ACE2), residues 1-615, untagged (Q9BYF1 18-615): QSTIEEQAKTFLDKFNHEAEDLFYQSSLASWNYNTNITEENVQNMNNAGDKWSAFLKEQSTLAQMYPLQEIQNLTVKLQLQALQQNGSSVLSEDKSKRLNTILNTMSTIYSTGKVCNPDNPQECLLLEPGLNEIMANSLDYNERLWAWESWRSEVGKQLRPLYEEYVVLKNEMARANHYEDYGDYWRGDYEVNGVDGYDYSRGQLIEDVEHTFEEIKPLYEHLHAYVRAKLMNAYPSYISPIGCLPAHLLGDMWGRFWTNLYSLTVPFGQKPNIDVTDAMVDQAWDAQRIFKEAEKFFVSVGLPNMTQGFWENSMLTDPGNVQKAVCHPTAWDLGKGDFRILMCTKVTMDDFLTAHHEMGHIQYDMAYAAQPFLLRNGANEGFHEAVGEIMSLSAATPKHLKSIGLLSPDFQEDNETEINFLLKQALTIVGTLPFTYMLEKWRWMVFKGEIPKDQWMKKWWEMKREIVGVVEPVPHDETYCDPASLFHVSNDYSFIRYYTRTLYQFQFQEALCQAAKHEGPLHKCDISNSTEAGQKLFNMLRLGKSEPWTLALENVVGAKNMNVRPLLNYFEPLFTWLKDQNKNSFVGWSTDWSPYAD

Regarding “2019-nCoV S prefusion-stabilized ectodomain (residues 1-1208, two proline substitutions, GSAS at the (domain or fragment)”, the stoichiometry N in test [1] amounted to 3. As to “human angiotensin-converting enzyme 2 (ACE2), residues 1-615, untagged (from UniProt Q9BYF1 18-615) (receptor)”, the Kd in test [2] came to 15 nM.

As usually defined, the stoichiometry N is a count of units in the complex or per binding partner. Broadly, the Kd is the equilibrium constant for the complex coming apart. Low values mean a tighter complex, high ones a looser complex.
